According to patent US6165749:

Tested on: AccIII restriction endonuclease (L2V) L2V
Experiment: cleavage_in_vitro
Conditions: Takara data sheet conditions; about 16 times the level of the Acc bacterium

Substance: AccIII assay substrate DNA (data sheet conditions)
- activity (units per g wet cells): 8000
